Results as given in patent publication US20080194482A1, “Selective Apac2 Receptor Peptide Agonists” (priority 2005, published 2008).
Square brackets hold non-standard residues; d marks the D form. Ends that are not written are not given here. * marks the point of attachment. Orn = NCCC[C@H](N)C(=O)O; Hexanoyl = CCCCCC(=O)*; Aib = CC(C)(N)C(=O)O

T1: human VPAC2 receptor (human, UniProt P41587 24-438)
T1 sequence (looked up): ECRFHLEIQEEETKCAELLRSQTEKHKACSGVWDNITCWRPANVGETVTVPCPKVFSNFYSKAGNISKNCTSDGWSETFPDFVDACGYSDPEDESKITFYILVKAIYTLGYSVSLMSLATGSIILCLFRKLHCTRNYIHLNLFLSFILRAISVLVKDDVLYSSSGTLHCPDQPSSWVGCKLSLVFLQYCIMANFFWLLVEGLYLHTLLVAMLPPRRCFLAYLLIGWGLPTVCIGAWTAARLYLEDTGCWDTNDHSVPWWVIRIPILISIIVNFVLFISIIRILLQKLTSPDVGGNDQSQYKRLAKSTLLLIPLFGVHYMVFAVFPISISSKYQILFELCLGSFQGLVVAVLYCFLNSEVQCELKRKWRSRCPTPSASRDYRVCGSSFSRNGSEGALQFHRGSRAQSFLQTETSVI

T2: rat VPAC2 receptor (rat, UniProt P35000 23-437)
T2 sequence (looked up): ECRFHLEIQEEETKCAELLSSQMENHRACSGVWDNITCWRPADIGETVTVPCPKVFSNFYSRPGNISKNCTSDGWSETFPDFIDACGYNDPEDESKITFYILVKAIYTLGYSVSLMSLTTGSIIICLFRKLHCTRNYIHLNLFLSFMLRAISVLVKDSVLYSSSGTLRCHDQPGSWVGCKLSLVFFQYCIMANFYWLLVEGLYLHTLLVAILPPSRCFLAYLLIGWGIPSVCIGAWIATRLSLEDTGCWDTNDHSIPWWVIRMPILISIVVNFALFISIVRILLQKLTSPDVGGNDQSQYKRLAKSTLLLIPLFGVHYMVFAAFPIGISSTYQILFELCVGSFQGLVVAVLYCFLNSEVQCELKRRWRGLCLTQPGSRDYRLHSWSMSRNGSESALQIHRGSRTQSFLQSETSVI

T3: rat VPAC1 receptor (rat, UniProt P30083 31-459)
T3 sequence (looked up): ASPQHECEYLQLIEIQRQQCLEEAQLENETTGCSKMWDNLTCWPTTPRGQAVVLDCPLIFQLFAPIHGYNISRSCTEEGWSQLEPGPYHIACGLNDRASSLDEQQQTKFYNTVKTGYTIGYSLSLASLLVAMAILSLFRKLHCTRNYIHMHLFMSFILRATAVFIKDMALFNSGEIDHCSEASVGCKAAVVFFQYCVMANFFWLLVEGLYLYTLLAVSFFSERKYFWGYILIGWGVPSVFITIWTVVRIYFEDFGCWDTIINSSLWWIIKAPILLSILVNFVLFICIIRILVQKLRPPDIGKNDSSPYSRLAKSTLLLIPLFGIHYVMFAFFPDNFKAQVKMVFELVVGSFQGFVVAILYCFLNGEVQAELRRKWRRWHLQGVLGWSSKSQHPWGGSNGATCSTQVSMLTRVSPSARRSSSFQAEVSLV


Molecular target: T1, human VPAC2 receptor
Assay: cell-based or functional assay

Row | Binder | Human VPAC2 Receptor: Alpha Screen (EC50; nM), cAMP generation [nM]
1 | Hexanoyl-HSDAVFTDNYTQLR[Aib]QVAA[Aib]KYLQSI[Orn]N[Orn]GGPSSGAPPPS [VPAC2 receptor peptide agonist P368] | 1.09
2 | Hexanoyl-HSDAVFTDNYTFLR[Aib]QVAA[Aib]KYLQSI[Orn]N[Orn]GGPSSGAPPPS [VPAC2 receptor peptide agonist P369] | 10.5
3 | Hexanoyl-HSDAVFTDQYT[Orn]LR[Aib]QVAA[Aib]KYLQSI[Orn]Q[Orn]GGPSSGAPPPS [VPAC2 receptor peptide agonist P363] | 0.27
4 | HSDAVFTDNYTXLRXQVAAXKYLQSSXNXGGPSSGAPPPS (N-terminal hexanoyl (C6); Orn at 12, 27 and 29; Aib at 15 and 20) [VPAC2 receptor peptide agonist P382] | 0.33
5 | HSDAVFTDNYTXLRXQVAAXSYLQSIXNXGGPSSGAPPPS (N-terminal hexanoyl (C6); Orn at 12, 27 and 29; Aib at 15 and 20) [VPAC2 receptor peptide agonist P386] | 0.65
6 | HSDAVFTDNYTXLRXQVAAXKSLQSIXNXGGPSSGAPPPS (N-terminal hexanoyl (C6); Orn at 12, 27 and 29; Aib at 15 and 20) [VPAC2 receptor peptide agonist P385] | 23.9
7 | HSDAVFTDNYTXLRXQVASXKYLQSIXNXGGPSSGAPPPS (N-terminal hexanoyl (C6); Orn at 12, 27 and 29; Aib at 15 and 20) [VPAC2 receptor peptide agonist P387] | 0.47
8 | Hexanoyl-HSDAVFTDNYT[Orn]SR[Aib]QVAA[Aib]KYLQSI[Orn]N[Orn]GGPSSGAPPPS [VPAC2 receptor peptide agonist P391] | 0.48
9 | HSDAVFTDNYTXLRXQVAAXKYSQSIXNXGGPSSGAPPPS (N-terminal hexanoyl (C6); Orn at 12, 27 and 29; Aib at 15 and 20) [VPAC2 receptor peptide agonist P384] | 6.7
10 | HSDAVFTDNYTXLRXQVSAXKYLQSIXNXGGPSSGAPPPS (N-terminal hexanoyl (C6); Orn at 12, 27 and 29; Aib at 15 and 20) [VPAC2 receptor peptide agonist P388] | 2760
11 | HSDAVFTDNYTXLRXQSAAXKYLQSIXNXGGPSSGAPPPS (N-terminal hexanoyl (C6); Orn at 12, 27 and 29; Aib at 15 and 20) [VPAC2 receptor peptide agonist P389] | 0.16
12 | HSDAVFTDNYTXLRXQVAAXKYLSSIXNXGGPSSGAPPPS (N-terminal hexanoyl (C6); Orn at 12, 27 and 29; Aib at 15 and 20) [VPAC2 receptor peptide agonist P383] | 0.12

Molecular target: T2, rat VPAC2 receptor
Assay: cell-based or functional assay

Row | Binder | Rat VPAC2 Receptor: DiscoveRx (EC50; nM), cAMP generation [nM]
13 | Hexanoyl-HSDAVFTDNYTQLR[Aib]QVAA[Aib]KYLQSI[Orn]N[Orn]GGPSSGAPPPS [VPAC2 receptor peptide agonist P368] | 1.33
14 | Hexanoyl-HSDAVFTDNYTFLR[Aib]QVAA[Aib]KYLQSI[Orn]N[Orn]GGPSSGAPPPS [VPAC2 receptor peptide agonist P369] | 8.09
15 | Hexanoyl-HSDAVFTDQYT[Orn]LR[Aib]QVAA[Aib]KYLQSI[Orn]Q[Orn]GGPSSGAPPPS [VPAC2 receptor peptide agonist P363] | 0.09
16 | HSDAVFTDNYTXLRXQVAAXKYLQSSXNXGGPSSGAPPPS (N-terminal hexanoyl (C6); Orn at 12, 27 and 29; Aib at 15 and 20) [VPAC2 receptor peptide agonist P382] | 0.37
17 | HSDAVFTDNYTXLRXQVAAXSYLQSIXNXGGPSSGAPPPS (N-terminal hexanoyl (C6); Orn at 12, 27 and 29; Aib at 15 and 20) [VPAC2 receptor peptide agonist P386] | 0.28
18 | HSDAVFTDNYTXLRXQVAAXKSLQSIXNXGGPSSGAPPPS (N-terminal hexanoyl (C6); Orn at 12, 27 and 29; Aib at 15 and 20) [VPAC2 receptor peptide agonist P385] | 28.8
19 | HSDAVFTDNYTXLRXQVASXKYLQSIXNXGGPSSGAPPPS (N-terminal hexanoyl (C6); Orn at 12, 27 and 29; Aib at 15 and 20) [VPAC2 receptor peptide agonist P387] | 0.4
20 | Hexanoyl-HSDAVFTDNYT[Orn]SR[Aib]QVAA[Aib]KYLQSI[Orn]N[Orn]GGPSSGAPPPS [VPAC2 receptor peptide agonist P391] | 0.5
21 | HSDAVFTDNYTXLRXQVAAXKYSQSIXNXGGPSSGAPPPS (N-terminal hexanoyl (C6); Orn at 12, 27 and 29; Aib at 15 and 20) [VPAC2 receptor peptide agonist P384] | 8.05
22 | HSDAVFTDNYTXLRXQVSAXKYLQSIXNXGGPSSGAPPPS (N-terminal hexanoyl (C6); Orn at 12, 27 and 29; Aib at 15 and 20) [VPAC2 receptor peptide agonist P388] | 709
23 | HSDAVFTDNYTXLRXQSAAXKYLQSIXNXGGPSSGAPPPS (N-terminal hexanoyl (C6); Orn at 12, 27 and 29; Aib at 15 and 20) [VPAC2 receptor peptide agonist P389] | 0.21
24 | HSDAVFTDNYTXLRXQVAAXKYLSSIXNXGGPSSGAPPPS (N-terminal hexanoyl (C6); Orn at 12, 27 and 29; Aib at 15 and 20) [VPAC2 receptor peptide agonist P383] | 0.18

Molecular target: T3, rat VPAC1 receptor
Assay: cell-based or functional assay

Row | Binder | Rat VPAC1 Receptor: DiscoveRx (EC50; nM), cAMP generation [nM]
25 | Hexanoyl-HSDAVFTDNYTQLR[Aib]QVAA[Aib]KYLQSI[Orn]N[Orn]GGPSSGAPPPS [VPAC2 receptor peptide agonist P368] | 20.9
26 | Hexanoyl-HSDAVFTDNYTFLR[Aib]QVAA[Aib]KYLQSI[Orn]N[Orn]GGPSSGAPPPS [VPAC2 receptor peptide agonist P369] | 130
27 | Hexanoyl-HSDAVFTDQYT[Orn]LR[Aib]QVAA[Aib]KYLQSI[Orn]Q[Orn]GGPSSGAPPPS [VPAC2 receptor peptide agonist P363] | 1.44
28 | HSDAVFTDNYTXLRXQVAAXKYLQSSXNXGGPSSGAPPPS (N-terminal hexanoyl (C6); Orn at 12, 27 and 29; Aib at 15 and 20) [VPAC2 receptor peptide agonist P382] | 8.21
29 | HSDAVFTDNYTXLRXQVAAXSYLQSIXNXGGPSSGAPPPS (N-terminal hexanoyl (C6); Orn at 12, 27 and 29; Aib at 15 and 20) [VPAC2 receptor peptide agonist P386] | 4.34
30 | HSDAVFTDNYTXLRXQVAAXKSLQSIXNXGGPSSGAPPPS (N-terminal hexanoyl (C6); Orn at 12, 27 and 29; Aib at 15 and 20) [VPAC2 receptor peptide agonist P385] | 96.8
31 | HSDAVFTDNYTXLRXQVASXKYLQSIXNXGGPSSGAPPPS (N-terminal hexanoyl (C6); Orn at 12, 27 and 29; Aib at 15 and 20) [VPAC2 receptor peptide agonist P387] | 20.4
32 | Hexanoyl-HSDAVFTDNYT[Orn]SR[Aib]QVAA[Aib]KYLQSI[Orn]N[Orn]GGPSSGAPPPS [VPAC2 receptor peptide agonist P391] | 9.09
33 | HSDAVFTDNYTXLRXQVAAXKYSQSIXNXGGPSSGAPPPS (N-terminal hexanoyl (C6); Orn at 12, 27 and 29; Aib at 15 and 20) [VPAC2 receptor peptide agonist P384] | > 600
34 | HSDAVFTDNYTXLRXQVSAXKYLQSIXNXGGPSSGAPPPS (N-terminal hexanoyl (C6); Orn at 12, 27 and 29; Aib at 15 and 20) [VPAC2 receptor peptide agonist P388] | > 2000
35 | HSDAVFTDNYTXLRXQSAAXKYLQSIXNXGGPSSGAPPPS (N-terminal hexanoyl (C6); Orn at 12, 27 and 29; Aib at 15 and 20) [VPAC2 receptor peptide agonist P389] | 4.4
36 | HSDAVFTDNYTXLRXQVAAXKYLSSIXNXGGPSSGAPPPS (N-terminal hexanoyl (C6); Orn at 12, 27 and 29; Aib at 15 and 20) [VPAC2 receptor peptide agonist P383] | 1.68

Molecular target: T1, human VPAC2 receptor
Assay: filter binding, human VPAC2 membranes, competition with 125I-VIP;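 further: assay plate incubated 1 h with shaking, then filtered, with filter-retained counts measured after adding scintillant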
Procedure: The filled plate is incubated for 1 hour with shaking.
The transfer from assay plate to filter plate is conducted. The blocking buffer is aspirated by vacuum filtration and washed two times with flush buffer. 90 μL is transferred from the assay plate to the filter plate. The 90 μL transferred from assay plate is aspirated and washed three times with 200 μL flush buffer. The plastic support is removed. It is dried for 1 hour at 60° C. 30 μL Microscint is added. The count is performed.

Row | Binder | IC50 [nM]
37 | Hexanoyl-HSDAVFTDNYTQLR[Aib]QVAA[Aib]KYLQSI[Orn]N[Orn]GGPSSGAPPPS [VPAC2 receptor peptide agonist P368] | 28.6
38 | Hexanoyl-HSDAVFTDNYTFLR[Aib]QVAA[Aib]KYLQSI[Orn]N[Orn]GGPSSGAPPPS [VPAC2 receptor peptide agonist P369] | 37.3
39 | Hexanoyl-HSDAVFTDQYT[Orn]LR[Aib]QVAA[Aib]KYLQSI[Orn]Q[Orn]GGPSSGAPPPS [VPAC2 receptor peptide agonist P363] | 0.25
40 | HSDAVFTDNYTXLRXQVAAXKYLQSSXNXGGPSSGAPPPS (N-terminal hexanoyl (C6); Orn at 12, 27 and 29; Aib at 15 and 20) [VPAC2 receptor peptide agonist P382] | 2.17
41 | HSDAVFTDNYTXLRXQVAAXSYLQSIXNXGGPSSGAPPPS (N-terminal hexanoyl (C6); Orn at 12, 27 and 29; Aib at 15 and 20) [VPAC2 receptor peptide agonist P386] | 5.92
42 | HSDAVFTDNYTXLRXQVAAXKSLQSIXNXGGPSSGAPPPS (N-terminal hexanoyl (C6); Orn at 12, 27 and 29; Aib at 15 and 20) [VPAC2 receptor peptide agonist P385] | 99.2
43 | HSDAVFTDNYTXLRXQVASXKYLQSIXNXGGPSSGAPPPS (N-terminal hexanoyl (C6); Orn at 12, 27 and 29; Aib at 15 and 20) [VPAC2 receptor peptide agonist P387] | 1.39
44 | Hexanoyl-HSDAVFTDNYT[Orn]SR[Aib]QVAA[Aib]KYLQSI[Orn]N[Orn]GGPSSGAPPPS [VPAC2 receptor peptide agonist P391] | 3.67
45 | HSDAVFTDNYTXLRXQVAAXKYSQSIXNXGGPSSGAPPPS (N-terminal hexanoyl (C6); Orn at 12, 27 and 29; Aib at 15 and 20) [VPAC2 receptor peptide agonist P384] | 22.2
46 | HSDAVFTDNYTXLRXQVSAXKYLQSIXNXGGPSSGAPPPS (N-terminal hexanoyl (C6); Orn at 12, 27 and 29; Aib at 15 and 20) [VPAC2 receptor peptide agonist P388] | 100
47 | HSDAVFTDNYTXLRXQSAAXKYLQSIXNXGGPSSGAPPPS (N-terminal hexanoyl (C6); Orn at 12, 27 and 29; Aib at 15 and 20) [VPAC2 receptor peptide agonist P389] | 0.82
48 | HSDAVFTDNYTXLRXQVAAXKYLSSIXNXGGPSSGAPPPS (N-terminal hexanoyl (C6); Orn at 12, 27 and 29; Aib at 15 and 20) [VPAC2 receptor peptide agonist P383] | 5.01
